Molecular target: T1, GBP1 GTPase (human GBP1, recombinant wild type) (human, UniProt P32455 1-592)
T1 sequence (looked up): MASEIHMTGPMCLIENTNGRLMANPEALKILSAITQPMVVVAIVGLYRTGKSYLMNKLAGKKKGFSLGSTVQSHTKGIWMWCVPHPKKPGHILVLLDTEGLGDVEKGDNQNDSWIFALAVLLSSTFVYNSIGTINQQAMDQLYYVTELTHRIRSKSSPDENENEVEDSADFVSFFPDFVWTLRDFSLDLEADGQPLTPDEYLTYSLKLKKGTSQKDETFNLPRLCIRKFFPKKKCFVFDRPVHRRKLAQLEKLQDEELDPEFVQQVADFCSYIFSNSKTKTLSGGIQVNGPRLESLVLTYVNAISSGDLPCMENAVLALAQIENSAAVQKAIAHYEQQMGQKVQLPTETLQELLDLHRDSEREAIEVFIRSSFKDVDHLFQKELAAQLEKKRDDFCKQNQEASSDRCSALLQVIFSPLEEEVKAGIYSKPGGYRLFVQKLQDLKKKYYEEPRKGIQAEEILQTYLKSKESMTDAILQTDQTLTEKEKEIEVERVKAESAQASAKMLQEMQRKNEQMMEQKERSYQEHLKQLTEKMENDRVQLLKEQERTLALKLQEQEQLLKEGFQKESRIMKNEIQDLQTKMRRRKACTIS
Assay: SPR

Kd: 38 ± 14 nM
B1: PIM1 (recombinant) (enzyme)
chain: not shown

Reference: paper PMC4191604 (Journal of Medicinal Chemistry, 2014)
